Source: patent US20260193348A1 (ANTENGENE BIOLOGICS, published 2026)

Key:
GPRC5D on MM.1S cells [1] = target: T1, GPRC5D on MM.1S cells (human, UniProt Q9NZD1 1-345); test: cell-based or functional assay
GPRC5D on MM.1S cells [2] = target: T1, GPRC5D on MM.1S cells; test: FACS on MM.1S cells
Description: The binding affinities of the generated humanized Fab-scFv-Fab bispecific antibodies were determined by FACS analysis. […] (a) Jurkat cells were washed by Staining Buffer (PBS+1% BSA) in round bottom 96-well plate. [0833] (b) Antibody dilutions and cells were added to each well, incubated at 4 degrees for 1 hour. [0834] (c) Cells were spined down at 300 g for 3 minutes, and the supernatants were discarded. [0835] (d) Cells were washed with Staining Buffer. […] (e) Step (d) was repeated and the cells were incubated for 0.5 hours at 4 degrees with secondary antibody in Staining Buffer. [0837] (f) After incubation, step (d)-(e) were repeated. […] (g) Staining Buffer was added and fluorescence signals were recorded by flow cytometry.
The binding affinities of the generated humanized Fab-scFv-Fab bispecific antibodies were determined by FACS analysis. The ATG-Bis-40E9 was used as positive control and hIgG1 isotype was used as negative control. The protocol for FACS analysis is identical to that described in Example 3.2, except that MM.1S cells were used in this example.

GPRC5D on MM.1S cells [3] = target: T1, GPRC5D on MM.1S cells; test: cell-based or functional assay; remark: listed apart in the source

T1 sequence (Q9NZD1 whole entry): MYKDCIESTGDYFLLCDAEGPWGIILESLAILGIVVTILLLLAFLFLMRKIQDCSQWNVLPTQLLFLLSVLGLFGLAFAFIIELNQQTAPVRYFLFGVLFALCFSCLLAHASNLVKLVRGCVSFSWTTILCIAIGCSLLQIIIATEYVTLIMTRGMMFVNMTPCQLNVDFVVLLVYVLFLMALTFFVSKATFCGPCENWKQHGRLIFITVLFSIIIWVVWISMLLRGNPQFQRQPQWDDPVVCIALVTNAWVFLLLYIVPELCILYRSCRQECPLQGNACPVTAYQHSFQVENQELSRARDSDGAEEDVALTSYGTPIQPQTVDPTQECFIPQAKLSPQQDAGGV

B1: Bis-108+ch147 (bispecific antibody)
heavy 1: not shown
heavy 2: EVQLVQSGAEVKKPGASVKVSCKASGYTFTSYVIHWVRQAPGQGLEWMGYFNPYNDGTKYNEEFKGRVTLTSDKSTSTAYMELRSLRSDDTAVYYCARGGVRRYFDVWGQGTTVTVSSASTKGPSVFPLAPSSKSTSGGTAALGCLVKDYFPEPVTVSWNSGALTSGVHTFPAVLQSSGLYSLSSVVTVPSSSLGTQTYICNVNHKPSNTKVDKKVEPKSCGGGGSGGGGSQVQLQQPGTELVKPGTSVKLSCKASGYTFTSYWMHWVKQRPGQCLEWIGNINPSNGATNYNEKFKSKATLTVDKSSSTAYMQLSSLTSEDSAVYYCARDRSSQYYFDYWGQGTTLTVSSGGGGSGGGGSGGGGSGGGGSDIVMSQSPSSLAVSAGEKVTMSCKSSQSLLNSRSRKNYLAWYQQKPGQSPKLLIYWASTRESGVPDRFTGSGSGTDFTLTISSVQAEDLAVYYCTQSYTLRTFGCGTKLEIKGGGGSGGGGSDKTHTCPPCPAPEAAGGPSVFLFPPKPKDTLMISRTPEVTCVVVDVSHEDPEVKFNWYVDGVEVHNAKTKPREEQYNSTYRVVSVLTVLHQDWLNGKEYKCKVSNKALPAPIEKTISKAKGQPREPQVCTLPPSREEMTKNQVSLSCAVKGFYPSDIAVEWESNGQPENNYKTTPPVLDSDGSFFLVSKLTVDKSRWQQGNVFSCSVMHEALHNHYTQKSLSLSPGK
light: DIQMTQSPSSLSASVGDRVTITCRASQDIGSNLNWLQQKPGKAIKRLIYATFGLDSGVPSRFSGSRSGTDFTLTISSLQPEDFATYYCQQYASFPYTFGGGTKVEIKRTVAAPSVFIFPPSDEQLKSGTASVVCLLNNFYPREAKVQWKVDNALQSGNSQESVTEQDSKDSTYSLSSTLTLSKADYEKHKVYACEVTHQGLSSPVTKSFNRGEC
notes: Fab-scFv-Fab format
GPRC5D on MM.1S cells [1]
  IC50 of T-cell dependent cytotoxicity on MM.1S cells: 0.53 nM
  Top (%) target cell killing, MM.1S cells: 99.4%
GPRC5D on MM.1S cells [2]
  EC50: 2.61 nM
  Top signal: 2260 MFI
GPRC5D on MM.1S cells [3]
  EC50, Jurkat-NFAT-Luciferase assay in the presence of MM.1S cells: 0.11 nM
  Top RLU, Jurkat-NFAT-Luciferase assay in the presence of MM.1S cells: 368 RLU

B2: Bis-108+147-R35S.L (bispecific antibody)
heavy 1: not shown
heavy 2: EVQLVQSGAEVKKPGASVKVSCKASGYTFTSYVIHWVRQAPGQGLEWMGYFNPYNDGTKYNEEFKGRVTLTSDKSTSTAYMELRSLRSDDTAVYYCARGGVRRYFDVWGQGTTVTVSSASTKGPSVFPLAPSSKSTSGGTAALGCLVKDYFPEPVTVSWNSGALTSGVHTFPAVLQSSGLYSLSSVVTVPSSSLGTQTYICNVNHKPSNTKVDKKVEPKSCGGGGSGGGGSEVQLVQSGAEVKKPGSSVKVSCKASGYTFTSYWMHWVRQAPGQCLEWMGNINPSSGATNYNEKFKSRVTLTVDKSTSTAYMELSSLRSEDTAVYYCARDRSSQYYFDYWGQGTTVTVSSGGGGSGGGGSGGGGSGGGGSDIVMTQSPDSLAVSLGERATINCKSSQSLLNSRSSKNYLAWYQQKPGQPPKLLIYWASTRESGVPDRFSGSGSGTDFTLTISSLQAEDVAVYYCTQSYTLRTFGCGTKVEIKGGGGSGGGGSDKTHTCPPCPAPEAAGGPSVFLFPPKPKDTLMISRTPEVTCVVVDVSHEDPEVKFNWYVDGVEVHNAKTKPREEQYNSTYRVVSVLTVLHQDWLNGKEYKCKVSNKALPAPIEKTISKAKGQPREPQVCTLPPSREEMTKNQVSLSCAVKGFYPSDIAVEWESNGQPENNYKTTPPVLDSDGSFFLVSKLTVDKSRWQQGNVFSCSVMHEALHNHYTQKSLSLSPGK
light: DIQMTQSPSSLSASVGDRVTITCRASQDIGSNLNWLQQKPGKAIKRLIYATFGLDSGVPSRFSGSRSGTDFTLTISSLQPEDFATYYCQQYASFPYTFGGGTKVEIKRTVAAPSVFIFPPSDEQLKSGTASVVCLLNNFYPREAKVQWKVDNALQSGNSQESVTEQDSKDSTYSLSSTLTLSKADYEKHKVYACEVTHQGLSSPVTKSFNRGEC
notes: Fab-scFv-Fab format
GPRC5D on MM.1S cells [1]
  IC50 of T-cell dependent cytotoxicity on MM.1S cells: 1.64 nM
  Top (%) target cell killing, MM.1S cells: 102%
GPRC5D on MM.1S cells [2]
  EC50: 1.53 nM
  Top signal: 1860 MFI
GPRC5D on MM.1S cells [3]
  EC50, Jurkat-NFAT-Luciferase assay in the presence of MM.1S cells: 1.87 nM
  Top RLU, Jurkat-NFAT-Luciferase assay in the presence of MM.1S cells: 344 RLU

B3: Bis-108+147-K36R.L (bispecific antibody)
heavy 1: not shown
heavy 2: EVQLVQSGAEVKKPGASVKVSCKASGYTFTSYVIHWVRQAPGQGLEWMGYFNPYNDGTKYNEEFKGRVTLTSDKSTSTAYMELRSLRSDDTAVYYCARGGVRRYFDVWGQGTTVTVSSASTKGPSVFPLAPSSKSTSGGTAALGCLVKDYFPEPVTVSWNSGALTSGVHTFPAVLQSSGLYSLSSVVTVPSSSLGTQTYICNVNHKPSNTKVDKKVEPKSCGGGGSGGGGSEVQLVQSGAEVKKPGSSVKVSCKASGYTFTSYWMHWVRQAPGQCLEWMGNINPSSGATNYNEKFKSRVTLTVDKSTSTAYMELSSLRSEDTAVYYCARDRSSQYYFDYWGQGTTVTVSSGGGGSGGGGSGGGGSGGGGSDIVMTQSPDSLAVSLGERATINCKSSQSLLNSRSRRNYLAWYQQKPGQPPKLLIYWASTRESGVPDRFSGSGSGTDFTLTISSLQAEDVAVYYCTQSYTLRTFGCGTKVEIKGGGGSGGGGSDKTHTCPPCPAPEAAGGPSVFLFPPKPKDTLMISRTPEVTCVVVDVSHEDPEVKFNWYVDGVEVHNAKTKPREEQYNSTYRVVSVLTVLHQDWLNGKEYKCKVSNKALPAPIEKTISKAKGQPREPQVCTLPPSREEMTKNQVSLSCAVKGFYPSDIAVEWESNGQPENNYKTTPPVLDSDGSFFLVSKLTVDKSRWQQGNVFSCSVMHEALHNHYTQKSLSLSPGK
light: DIQMTQSPSSLSASVGDRVTITCRASQDIGSNLNWLQQKPGKAIKRLIYATFGLDSGVPSRFSGSRSGTDFTLTISSLQPEDFATYYCQQYASFPYTFGGGTKVEIKRTVAAPSVFIFPPSDEQLKSGTASVVCLLNNFYPREAKVQWKVDNALQSGNSQESVTEQDSKDSTYSLSSTLTLSKADYEKHKVYACEVTHQGLSSPVTKSFNRGEC
notes: Fab-scFv-Fab format
GPRC5D on MM.1S cells [1]
  IC50 of T-cell dependent cytotoxicity on MM.1S cells: 1940 nM
GPRC5D on MM.1S cells [2]
  EC50: 1.56 nM
  Top signal: 1840 MFI
GPRC5D on MM.1S cells [3]
  EC50, Jurkat-NFAT-Luciferase assay in the presence of MM.1S cells: 0.76 nM
  Top RLU, Jurkat-NFAT-Luciferase assay in the presence of MM.1S cells: 326 RLU

B4: Bis-108+147-N31Y.L (bispecific antibody)
heavy 1: not shown
heavy 2: EVQLVQSGAEVKKPGASVKVSCKASGYTFTSYVIHWVRQAPGQGLEWMGYFNPYNDGTKYNEEFKGRVTLTSDKSTSTAYMELRSLRSDDTAVYYCARGGVRRYFDVWGQGTTVTVSSASTKGPSVFPLAPSSKSTSGGTAALGCLVKDYFPEPVTVSWNSGALTSGVHTFPAVLQSSGLYSLSSVVTVPSSSLGTQTYICNVNHKPSNTKVDKKVEPKSCGGGGSGGGGSEVQLVQSGAEVKKPGSSVKVSCKASGYTFTSYWMHWVRQAPGQCLEWMGNINPSSGATNYNEKFKSRVTLTVDKSTSTAYMELSSLRSEDTAVYYCARDRSSQYYFDYWGQGTTVTVSSGGGGSGGGGSGGGGSGGGGSDIVMTQSPDSLAVSLGERATINCKSSQSLLYSRSRKNYLAWYQQKPGQPPKLLIYWASTRESGVPDRFSGSGSGTDFTLTISSLQAEDVAVYYCTQSYTLRTFGCGTKVEIKGGGGSGGGGSDKTHTCPPCPAPEAAGGPSVFLFPPKPKDTLMISRTPEVTCVVVDVSHEDPEVKFNWYVDGVEVHNAKTKPREEQYNSTYRVVSVLTVLHQDWLNGKEYKCKVSNKALPAPIEKTISKAKGQPREPQVCTLPPSREEMTKNQVSLSCAVKGFYPSDIAVEWESNGQPENNYKTTPPVLDSDGSFFLVSKLTVDKSRWQQGNVFSCSVMHEALHNHYTQKSLSLSPGK
light: DIQMTQSPSSLSASVGDRVTITCRASQDIGSNLNWLQQKPGKAIKRLIYATFGLDSGVPSRFSGSRSGTDFTLTISSLQPEDFATYYCQQYASFPYTFGGGTKVEIKRTVAAPSVFIFPPSDEQLKSGTASVVCLLNNFYPREAKVQWKVDNALQSGNSQESVTEQDSKDSTYSLSSTLTLSKADYEKHKVYACEVTHQGLSSPVTKSFNRGEC
notes: Fab-scFv-Fab format
GPRC5D on MM.1S cells [1]
  Top (%) target cell killing, MM.1S cells: 122%
GPRC5D on MM.1S cells [2]
  EC50: 1.93 nM
  Top signal: 1930 MFI
GPRC5D on MM.1S cells [3]
  EC50, Jurkat-NFAT-Luciferase assay in the presence of MM.1S cells: 0.27 nM
  Top RLU, Jurkat-NFAT-Luciferase assay in the presence of MM.1S cells: 11.8 RLU
